Values of other authors in patent US8278280B2, “Antagonists of the bradykinin B1 receptor” (priority 2003, dated 2012).

Biological target: T1, B2 receptors (Homo sapiens, UniProt P30411)
T1 sequence (P30411 1-391): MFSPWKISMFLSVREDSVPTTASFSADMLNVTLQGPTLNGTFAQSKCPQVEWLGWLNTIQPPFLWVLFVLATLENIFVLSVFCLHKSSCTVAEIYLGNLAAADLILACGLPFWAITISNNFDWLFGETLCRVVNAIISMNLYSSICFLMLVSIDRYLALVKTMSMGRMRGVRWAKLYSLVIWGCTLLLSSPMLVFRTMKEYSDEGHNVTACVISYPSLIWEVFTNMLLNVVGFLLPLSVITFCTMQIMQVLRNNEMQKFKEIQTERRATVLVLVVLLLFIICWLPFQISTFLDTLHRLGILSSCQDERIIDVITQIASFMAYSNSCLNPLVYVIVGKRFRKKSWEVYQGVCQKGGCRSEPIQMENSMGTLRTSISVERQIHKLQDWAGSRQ

## Arg Pro Pro Gly Phe Ser Pro Phe (RPPGFSPF; listed as Homo sapiens) [des-Arg-BK, B1 Agonist]
  activity at B2 receptors: inactive
